Reference: the RNAGym collection of RNA variant scans (doi:10.1073/pnas.2313332121)

B1: TPR t1 (parent)
chain: GACCAAUCUGCCCUCAGAGCUCGAGAACAUCUUCGGAUGCAGAGGAGGCAGGCUUCGGUGGCGCGAUAGCGCCAACGUCCUCAACCUCCAAUGCAUCCCACCACAUGAUGAUGCCUGAAGAGCCUUGGUUUUUUG

Variants of: B1
Experiment: polymerase ribozyme fitness, log enrichment relative to wild type (log ratio); higher = more active; in vitro selection for triplet polymerase activity
Method in brief: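 Mutant libraries were PCR-built and transcribed for each subunit of a heterodimeric triplet polymerase ribozyme and selected for one round in triplicate at −7 °C, frozen, before gel excision of extended constructs and streptavidin-bead capture. Input and output libraries were Illumina-sequenced, keeping genotypes with ≥10 input reads and ≥1 read per output. Fitness is a logarithmic ratio of genotype to wild-type enrichment, in base 2, using inverse-variance-weighted replicate averages.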

Going from A27C C49G G77U to U54A U87A, the “polymerase ribozyme fitness (log ratio)” value rises from -5.08 to -2.57.

First: C53U C73U C79A G127C
Second: A2U C13U
The “polymerase ribozyme fitness (log ratio)” value of the first is lower: -1.71 for the first, -1.36 for the second.

Compared with C20G A46U C62U C114U, G60A C104A is higher in “polymerase ribozyme fitness (log ratio)” value: -3.55 for the first, -1.89 for the second.

First: A43G G128A
Second: G110C G122C
The “polymerase ribozyme fitness (log ratio)” value of the first is higher: -3.36 for the first, -5.25 for the second.

First: C62U C85U U87A U92C C114U G117A
Second: C8G C20U
The “polymerase ribozyme fitness (log ratio)” value of the first is lower: -6.6 for the first, -1.02 for the second.

First: G117U C123G
Second: G45U C73U
The “polymerase ribozyme fitness (log ratio)” value of the first is higher: -1.56 for the first, -1.98 for the second.

Going from G69C C85U C86A to C11U A46U G47C G52U U55C G117U, the “polymerase ribozyme fitness (log ratio)” value falls from -3.64 to -6.86.

First: C15U G17U A91G C98U A111C
Second: G44A G60U A108G
The “polymerase ribozyme fitness (log ratio)” value of the first is lower: -6.3 for the first, -2.88 for the second.

Going from C88A U125G to C80U G127C, the “polymerase ribozyme fitness (log ratio)” value falls from -1.18 to -3.21.

First: G39U G60A G61A U87C C101U
Second: C8U G39C U96C C101U U116A
The “polymerase ribozyme fitness (log ratio)” value of the first is higher: -3.02 for the first, -3.66 for the second.

First: U38C C101U
Second: U14C G57U C80A U133A
The “polymerase ribozyme fitness (log ratio)” value of the first is higher: -1.08 for the first, -3.25 for the second.

Compared with A27C C86A, G47C G52C A68U U109A is lower in “polymerase ribozyme fitness (log ratio)” value: -4.06 for the first, -7.13 for the second.

Going from C20U G42U C56A C115G to G57U A68G, the “polymerase ribozyme fitness (log ratio)” value rises from -3.91 to -3.27.

Going from G61U G113A to A37C G44U C56G C73A C86U, the “polymerase ribozyme fitness (log ratio)” value falls from -0.951 to -5.78.

Compared with C76U A118G, A29G C72U is lower in “polymerase ribozyme fitness (log ratio)” value: -0.0957 for the first, -1.98 for the second.

Going from U38A C80U to U78C U92G, the “polymerase ribozyme fitness (log ratio)” value falls from -1.43 to -2.87.

Going from C3U C11U G39C G71A A119G to G36U A66G G69U U87G, the “polymerase ribozyme fitness (log ratio)” value falls from -0.917 to -2.53.

First: C76U C94U C104U U131C
Second: C11G C115A
The “polymerase ribozyme fitness (log ratio)” value of the first is lower: -0.407 for the first, 0.0312 for the second.

Going from C88U C89A to C86G C102A, the “polymerase ribozyme fitness (log ratio)” value falls from -1.24 to -3.09.

First: C56U G117C
Second: G36C C79G C98U C115U C124U
The “polymerase ribozyme fitness (log ratio)” value of the first is higher: -3.64 for the first, -6.21 for the second.

Going from A24G A29G C56A U87G G110A U133A to C8G C15A G63C, the “polymerase ribozyme fitness (log ratio)” value rises from -3.1 to -0.139.

First: U21C A27U
Second: C11G C53G
The “polymerase ribozyme fitness (log ratio)” value of the first is lower: -4.9 for the first, -1.43 for the second.

First: G47U C49G C88A A95C C123A
Second: C70U C101U
The “polymerase ribozyme fitness (log ratio)” value of the first is lower: -3.47 for the first, -0.854 for the second.

Compared with G10A G42A, G36C G44U A46C A50G G69U U78A C85A C124U is lower in “polymerase ribozyme fitness (log ratio)” value: -1.32 for the first, -4.01 for the second.

First: G25C C89A
Second: U9G C22G C34G G69U
The “polymerase ribozyme fitness (log ratio)” value of the first is lower: -7.16 for the first, -3.72 for the second.

First: G47U C53U
Second: C15U C73A U78A C86G
The “polymerase ribozyme fitness (log ratio)” value of the first is higher: -1.6 for the first, -2.43 for the second.

C49G G93C and G36U A90G are within 0.2 log units of each other in “polymerase ribozyme fitness (log ratio)” value: -1.06 for the first, -0.944 for the second.

Compared with C40G C102A A118U, C8U A41G C64G is lower in “polymerase ribozyme fitness (log ratio)” value: -2.92 for the first, -6.15 for the second.

Compared with A50U C123U, U7C A27U G36C G57A A74U is lower in “polymerase ribozyme fitness (log ratio)” value: 0.00244 for the first, -4.85 for the second.

Compared with C8A C12U G45U C62U C94G, A24U G36U U87C A90G G120U C124A U130G is lower in “polymerase ribozyme fitness (log ratio)” value: -1.01 for the first, -6.87 for the second.

Going from U7G C70U C102A to U54G C89A U106A, the “polymerase ribozyme fitness (log ratio)” value falls from -2.24 to -2.52.

Compared with A29U C40U C72G A84C A100C U106A A119U, G61U C85G C97U is lower in “polymerase ribozyme fitness (log ratio)” value: -3.21 for the first, -3.66 for the second.

Compared with U21A C53U A74C, C40G G47U G71U is lower in “polymerase ribozyme fitness (log ratio)” value: -0.636 for the first, -6.34 for the second.

Compared with C3G U7A G63C A95C, A29U C40G G52C G69C A121G U132C is higher in “polymerase ribozyme fitness (log ratio)” value: -2.41 for the first, -2.06 for the second.

C53U C79G G113C and A26U C49G are within 0.2 log units of each other in “polymerase ribozyme fitness (log ratio)” value: -3.6 for the first, -3.57 for the second.

First: C11U G44C A46U
Second: C8A U9G A41G G69U
The “polymerase ribozyme fitness (log ratio)” value of the first is lower: -2.61 for the first, -0.102 for the second.

Compared with G19U U130G, G45A G69A U87A U125A is lower in “polymerase ribozyme fitness (log ratio)” value: -3.14 for the first, -3.37 for the second.

First: A6U C8U C40U A43U G48C U132A
Second: U7C U32C U106A G113U
The “polymerase ribozyme fitness (log ratio)” value of the first is higher: -1.71 for the first, -3.53 for the second.

First: C3A C12U A29G U87C G110A A118U U131G
Second: C4U C62U A91U G120A
The “polymerase ribozyme fitness (log ratio)” value of the first is higher: -0.49 for the first, -2.44 for the second.

First: C13A A18U G42U G61U C123G
Second: U38A C102U A111G U112A U126G U129C
The “polymerase ribozyme fitness (log ratio)” value of the first is higher: -0.471 for the first, -6.23 for the second.

First: C56G A66U
Second: U54A C102G U112G
The “polymerase ribozyme fitness (log ratio)” value of the first is higher: -1.02 for the first, -6.74 for the second.

For G44U C72G C85A, the “polymerase ribozyme fitness (log ratio)” value was -2.52.
